# Non-standard residues stand in square brackets, D forms with d. Nle = CCCC[C@H](N)C(=O)O
# Biological target: T1, human IL-1β (Homo sapiens, UniProt P01584)
# T1 construct: purchased Amersham Japan
# Experiment: Binding activity for human IL-1: 125I-labelled human IL-1β retained on peptide-immobilized cellulose adsorbent
# Conditions: radioactivity remaining on 100 mg adsorbent (1 mg peptide fixed per g cellulose) after about 300 Bq 125I-labelled human IL-1β, room temperature 3 hours, 5 washes; γ counter
# Description: Adsorbents each having fixed 1 mg of one of the peptides obtained in Examples 1 through 15 and the Comparative Example were prepared as follows. One gram of a granular cellulose (CM-CELLULOFINE CH, available from Seikagaku Kogyo Co., Ltd.) is suspended in 5 ml of dioxane purified by distillation in the presence of sodium metal. To the suspension thus obtained was added 0.05 g of N-hydroxysuccinimide and 0.1 g of dicyclohexylcarbodimide, and the mixture was shaken at a room temperature for 1 night. The mixture thus obtained was washed with a 0.02 mole/l phosphate buffer (pH: 7.4) and then filtered with suction. The granules thus obtained were mixed with 1 ml of 0.02 mol/l phosphate buffer or purified water containing 1 mg of each one of the peptides obtained in Examples 1 through 15 and the Comparative Example. The mixtures were shaken overnight at a temperature of 4° C. and filtered with suction.
# From the thus prepared adsorbents, 100 mg each was weighed, and thereto was added 100 μl of 5% solution of bovine serum albumin in PBS (a 10 mM phosphate buffer solution containing 0.15M NaCl, pH: 7.4). The mixtures were incubated overnight at 4° C., then about 300 Bq of ^125 I-labelled human IL-1β (purchased from Amersham Japan) was added to them and the mixtures were incubated at a room temperature for 3 hours. The reaction mixtures thus obtained were washed 5 times with Tris buffer containing 0.2% of Triton X-100 and then tested for radioactivity remaining on the adsorbents with a γ counter.
# T1 sequence (P01584 117-269): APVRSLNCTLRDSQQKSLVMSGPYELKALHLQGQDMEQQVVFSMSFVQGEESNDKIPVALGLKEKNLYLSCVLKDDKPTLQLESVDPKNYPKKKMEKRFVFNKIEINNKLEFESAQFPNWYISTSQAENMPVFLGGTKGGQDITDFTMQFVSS
row,Radioactivity (cpm),Molecule
1,45 cpm,"NCC(=O)O [Reference Example, glycine, reference compound]"
2,678 cpm,H-Cys-Leu-Gln-Ile-Lys-Ile-Ser-OH (H-CLQIKIS-OH) [Example 8]
3,1292 cpm,H-K[Nle]C[Nle]R[Nle]Q[Nle]S-OH [Example 11]
4,764 cpm,H-Lys-Asn-Ser-Ser-Tyr-Cys-Leu-Arg-Ile-Lys-Ile-Ser-Ala-Lys-Phe-Val-Glu-OH (H-KNSSYCLRIKISAKFVE-OH) [Example 2]
5,576 cpm,H-Lys-Cys-Leu-Arg-Ile-Lys-Ile-Ser-OH (H-KCLRIKIS-OH) [Example 7]
6,1100 cpm,H-Lys-Cys-Leu-Gln-Ile-Gln-Ile-Ser-OH (H-KCLQIQIS-OH) [Example 9]
7,890 cpm,H-Lys-Cys-Val-Gln-Val-Gln-Val-Ser-OH (H-KCVQVQVS-OH) [Example 14]
8,1427 cpm,H-Lys-Ile-Cys-Ile-Arg-Ile-Gln-Ile-Ser-NH2 (H-KICIRIQIS-NH2) [Example 15]
9,1373 cpm,H-Lys-Ile-Cys-Ile-Arg-Ile-Gln-Ile-Ser-OH (H-KICIRIQIS-OH) [Example 10]
10,1167 cpm,H-Lys-Ile-Cys-Ile-His-Ile-Gln-Ile-Ser-OH (H-KICIHIQIS-OH) [Example 12]
11,1245 cpm,H-Lys-Ile-Cys-Leu-Arg-Ile-Gln-Ile-Ser-OH (H-KICLRIQIS-OH) [Example 13]
12,1171 cpm,H-Lys-Tyr-Cys-Leu-Arg-Ile-Lys-Ile-Ser-Ala-Lys-Phe-Val-Glu-Asn-Glu-Pro-OH (H-KYCLRIKISAKFVENEP-OH) [Example 3]
13,891 cpm,H-Tyr-Cys-Leu-Arg-Ile-Lys-Ile-Ser-Ala-Lys-OH (H-YCLRIKISAK-OH) [Example 4]
14,840 cpm,H-Tyr-Cys-Leu-Arg-Ile-Lys-Ile-Ser-OH (H-YCLRIKIS-OH) [Example 5]
15,84 cpm,"H-Tyr-Ser-Leu-Glu-Ile-Lys-Ile-Ser-OH (H-YSLEIKIS-OH) [Comparative Example, reference compound]"

row,Molecule,Radioactivity (cpm)
1,H-CLRIKIS-OH [Example 6],815 cpm
2,H-Val-Val-Arg-Asn-Ser-Ser-Tyr-Cys-Leu-Arg-Ile-Lys-Ile-Ser-Ala-Lys-OH (H-VVRNSSYCLRIKISAK-OH) [Example 1],922 cpm

# Source: patent publication US5624900A, “Peptide or its salts” (Kuraray Co., Ltd., priority 1990, dated 1997)
